Experimental findings from patent US20260043046A1 (ADVERUM BIOTECHNOLOGIES, published 2026) are described below.

Assay [1] has as its target T1, human complement C3 (Cat: C2910, Sigma) (human, UniProt P01024 23-1663).
T1 construct: Bought protein; Native C3 is a two-chain (beta/alpha) protein processed from one precursor, so it is written here as one natural entry; also called Complement component 3
The assay is described as follows: BLI (Octet HTX, 25 °C), human IgG1 in buffer against human complement C3.

Assay [2] deals with T1, human complement C3 (Cat: C2910, Sigma). Kind of assay: BLI (Octet HTX, 25 °C), HEK293 supernatant against human complement C3. On the procedure: Supernatant from suspension HEK293 cells transfected with vector carrying gene encoding anti-C3 antibody (cell culture and transfection methods can be found in previous section) were used for kinetics analysis via Octet (BLI) to measure binding affinity to human complement C3 (Cat: C2910, Sigma). Binding experiments were performed on Octet HTX at 25° C. by LakePharma (Redwood City, CA). There were three test articles including products of pADV1176 (0.015 mg/mL), negative control (supernatant from untransfected cells) and positive control (human IgG1 in buffer—137 mM NaCl, 2.7 mM KCl, 10 mM Na₂HPO₄, 2 mM KH₂PO₄, pH 7.4, 0.98 mg/mL).
In general terms: BLI is a label-free optical method that tracks binding on a fibre tip over time.

T1 sequence (P01024 23-1663 limits assumed): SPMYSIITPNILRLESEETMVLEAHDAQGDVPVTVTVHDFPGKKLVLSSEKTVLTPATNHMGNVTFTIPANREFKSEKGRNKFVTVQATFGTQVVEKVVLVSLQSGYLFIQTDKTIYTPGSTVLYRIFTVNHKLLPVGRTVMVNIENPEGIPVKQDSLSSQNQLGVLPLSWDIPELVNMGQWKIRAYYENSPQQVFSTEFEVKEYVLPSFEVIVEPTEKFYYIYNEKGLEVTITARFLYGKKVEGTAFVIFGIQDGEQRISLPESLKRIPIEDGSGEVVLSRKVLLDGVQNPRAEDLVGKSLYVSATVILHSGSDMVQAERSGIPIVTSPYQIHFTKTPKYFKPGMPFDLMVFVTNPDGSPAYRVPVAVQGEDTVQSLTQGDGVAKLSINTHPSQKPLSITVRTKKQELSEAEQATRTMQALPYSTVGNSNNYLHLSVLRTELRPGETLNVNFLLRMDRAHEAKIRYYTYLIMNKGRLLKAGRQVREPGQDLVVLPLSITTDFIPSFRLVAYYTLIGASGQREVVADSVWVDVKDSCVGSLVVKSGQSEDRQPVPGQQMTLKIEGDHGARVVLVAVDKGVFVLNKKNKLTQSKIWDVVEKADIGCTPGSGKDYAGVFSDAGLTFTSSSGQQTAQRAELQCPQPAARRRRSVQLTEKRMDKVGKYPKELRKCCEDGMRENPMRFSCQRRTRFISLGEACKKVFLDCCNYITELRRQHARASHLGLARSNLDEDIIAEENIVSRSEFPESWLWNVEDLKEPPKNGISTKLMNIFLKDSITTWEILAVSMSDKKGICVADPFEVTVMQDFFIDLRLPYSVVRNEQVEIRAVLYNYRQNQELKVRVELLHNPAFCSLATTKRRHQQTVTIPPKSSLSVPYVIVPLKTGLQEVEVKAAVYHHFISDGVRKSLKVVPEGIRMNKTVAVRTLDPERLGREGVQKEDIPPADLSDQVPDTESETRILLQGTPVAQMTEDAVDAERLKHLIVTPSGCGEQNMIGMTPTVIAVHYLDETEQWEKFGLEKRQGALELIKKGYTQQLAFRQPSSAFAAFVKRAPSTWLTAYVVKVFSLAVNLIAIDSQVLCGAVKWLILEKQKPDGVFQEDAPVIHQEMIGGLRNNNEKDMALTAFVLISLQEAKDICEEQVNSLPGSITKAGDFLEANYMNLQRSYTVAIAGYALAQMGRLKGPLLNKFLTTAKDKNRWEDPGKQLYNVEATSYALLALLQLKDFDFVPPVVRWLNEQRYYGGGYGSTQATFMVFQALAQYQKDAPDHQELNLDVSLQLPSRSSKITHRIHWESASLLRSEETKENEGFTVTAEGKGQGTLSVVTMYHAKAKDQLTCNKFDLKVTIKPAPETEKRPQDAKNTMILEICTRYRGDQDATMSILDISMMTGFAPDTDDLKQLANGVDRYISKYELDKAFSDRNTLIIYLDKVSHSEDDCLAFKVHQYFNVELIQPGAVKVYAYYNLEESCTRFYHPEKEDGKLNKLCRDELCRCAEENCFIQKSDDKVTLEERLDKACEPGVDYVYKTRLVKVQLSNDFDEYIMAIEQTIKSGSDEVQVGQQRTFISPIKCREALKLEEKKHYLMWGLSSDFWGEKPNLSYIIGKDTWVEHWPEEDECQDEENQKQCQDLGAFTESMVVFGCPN

As a reminder, the Kd is the free concentration of one partner at which half of the binding sites on the other are occupied at equilibrium, for simple one-to-one binding. Usually koff stands for the first-order rate constant of dissociation. A lower koff goes with a long-lived complex. Broadly, the kon is the rate constant with which the complex forms. A low value points to slower complex formation. In assay [1], “Positive control (human IgG1 in buffer, 0.98 mg/mL) (antibody)” came in with a Kd of 0.256 nM, a koff of 4.92e-05 s⁻¹ and a kon of 193000 M⁻¹ s⁻¹.

B1: Products of pADV1176 (anti-C3 antibody expressed from plasmid pADV1176 in suspension HEK293 cells) (antibody, human IgG1, kappa, V domains shown)
VH: QVQLVQSGAEVKKPGASVKVSCKASGYTFTDFYMDWVRQAPGQRLEWMGYIYPHNAGTTYNQQFTGRVTITVDKSASTAYMELSSLRSEDTAVYYCARRGGFDFDYWGQGTLVTVSS
VL: DIQMTQSPSSLSASVGDRVTITCKASENVDTYVSWYQQKPGKAPKLLIYGASNRYTGVPSRFSGSGSGTDFTFTISSLQPEDIATYHCGQSHSYPLTFGQGTKLEIKR
notes: Full-length humanized human IgG1, tested as unpurified HEK293 supernatant at 0.015 mg/mL; Two copies of each chain is inferred from 'full-length' IgG1; also called humanized anti-C3 antibody; products of AAV2.7m8-pADV1176
In the case of B1, in assay [2], the Kd came to 0.13 nM, the koff is 2.67e-05 s⁻¹ and the kon came to 206000 M⁻¹ s⁻¹.
